The values below come from the supplement of paper PMC7877785.

± gives the uncertainty stated by the source.

The data set in a line: self-splicing fitness, log relative to wild type (ln ratio); higher = more splicing; Tetrahymena group I intron in knt gene, E. coli kanamycin selection, DiMSum; sequences stand for … in CUCUCU…GGAGGGAAAAGUUAUCAGGCAUGCACCUGGUAGCUAGUCUUUAAACCAAUAGAUUGCAUCGGUUUAAAAGGCAAGACCGUCAAAUUGCGGGAAAGGGGUCAACAGCCGUUCAGUACCAAGUCUCAGGGGAAACUUUGAGAUGGCCUUGCAAAGGGUAUGGUAAUAAGCUGACGGACAUGGUCCUAACCACGCAGCCAAGUCCUAAGUCAACAGAUCUUCUGUUGAUAUGGAUGCAGUUCACAGACUAAAUGUCGGUCGGGGAAGAUGUAUUCUUCUCAUAAGAUAUAGUCGGACCUCUCCUUAAUGGGAGCUAGCGGAUGAAGUGAUGCAACACUGGAGCCGCUGGGAACUAAUUUGUAUGCGAAAGUAUAUUGAUUAGUUUUGGAGUACUCGUGGUCG
A digest of the protocol:
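Library with all eight P1ex-region intron nucleotides randomised, intron inside the knt kanamycin-resistance gene on pET-22b(+), in E. coli BL21(DE3). Cells grew overnight at 37°C or 30°C on LB agar with or without 25 μg/mL kanamycin (plus 100 μg/mL carbenicillin, 50 μM IPTG, 0.2% rhamnose), in six replicate transformations. Pooled colonies were amplicon-sequenced on Illumina HiSeq 2500. DiMSum fitness is the error-weighted combination of wild-type-normalised replicate fold changes, kanamycin versus none.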

As for UUAAAGCAAUAUUACGCGCU, the “self-splicing fitness (ln)” value by setting is: (30 °C) -0.179 ± 0.1; (37 °C) -0.107 ± 0.11.
With CUUGAGCAAUAUUACGUGCC, the “self-splicing fitness (ln)” value reads like this: (30 °C) -2.26 ± 0.17; (37 °C) -2.75 ± 0.38.
The like results for GUACAGCAAUAUUACGACUG were, in that order, -1.83 ± 0.13 and -1.33 ± 0.14.
The like results for ACGGAGCAAUAUUACGGGAA were, in that order, -4.37 ± 0.36 and -2.03 ± 0.31.
The like results for AUACAGCAAUAUUACGCGUG were, in that order, -0.923 ± 0.063 and -0.481 ± 0.082.
As for CGAGAGCAAUAUUACGCCUG, the “self-splicing fitness (ln)” value is, setting by setting: (30 °C) -3.12 ± 0.25; (37 °C) -1.73 ± 0.28.
The like results for AGCGAGCAAUAUUACGUAGA were, in that order, -3.17 ± 0.24 and -2.85 ± 0.29.
The corresponding values for AGCGAGCAAUAUUACGCUUA are -3.13 ± 0.27 and 0.422 ± 0.17.
Take CAACAGCAAUAUUACGAGGC: the “self-splicing fitness (ln)” value reads like this: (30 °C) -3.79 ± 0.36; (37 °C) -1.77 ± 0.18.
The corresponding values for GAACAGCAAUAUUACGAUAA are -0.728 ± 0.076 and -0.326 ± 0.092.
The corresponding values for AGGCAGCAAUAUUACGCCAU are -2.27 ± 0.25 and -1.39 ± 0.3.
As for AUCCAGCAAUAUUACGUCAA, the “self-splicing fitness (ln)” value by setting is: (30 °C) -1.99 ± 0.1; (37 °C) -1.54 ± 0.098.
Consider UGAGAGCAAUAUUACGACAA, for which the “self-splicing fitness (ln)” value by setting is: (30 °C) -0.796 ± 0.32; (37 °C) -1.99 ± 0.43.
The corresponding values for CAUGAGCAAUAUUACGUGUA are -3.33 ± 0.21 and -2.1 ± 0.15.
The like results for GGAGAGCAAUAUUACGAGCA were, in that order, -1.17 ± 0.35 and -1.86 ± 0.34.
Take CCUCAGCAAUAUUACGGAGG: the “self-splicing fitness (ln)” value is, setting by setting: (30 °C) -4.45 ± 0.24; (37 °C) -2.33 ± 0.21.
For the sequence AACCAGCAAUAUUACGGGAC, the “self-splicing fitness (ln)” value is -2.39 ± 0.094 (30 °C) and -2.11 ± 0.09 (37 °C).
Regarding CGGAAGCAAUAUUACGUAAC, under “37 °C”, the “self-splicing fitness (ln)” value is -2.71 ± 0.27.
Take ACCAAGCAAUAUUACGUGGA: the “self-splicing fitness (ln)” value is -2.92 ± 0.14 (30 °C) and -1.49 ± 0.11 (37 °C).
The corresponding values for CACAAGCAAUAUUACGCACG are -0.378 ± 0.067 and -0.684 ± 0.075.
For GUUUAGCAAUAUUACGUGCA, the “self-splicing fitness (ln)” value was -0.885 ± 0.099 (30 °C) and -0.958 ± 0.11 (37 °C).
In the case of CACCAGCAAUAUUACGGCCC, the “self-splicing fitness (ln)” value was -1.8 ± 0.17 (30 °C) and -0.352 ± 0.19 (37 °C).
In the case of GGCGAGCAAUAUUACGCGUU, the “self-splicing fitness (ln)” value is, setting by setting: (30 °C) -2.26 ± 0.24; (37 °C) -1.94 ± 0.3.
As to GCCCAGCAAUAUUACGACAA, the “self-splicing fitness (ln)” value (30 °C) is -2.72 ± 0.14 and the “self-splicing fitness (ln)” value (37 °C) is -1.27 ± 0.11.
With AUGAAGCAAUAUUACGACGA, the “self-splicing fitness (ln)” value stood at 0.221 ± 0.18 (30 °C) and 0.67 ± 0.15 (37 °C).
The corresponding values for UAUUAGCAAUAUUACGCGAG are -2.21 ± 0.2 and -0.0781 ± 0.15.
The corresponding values for CACUAGCAAUAUUACGGCUC are -2.9 ± 0.17 and -1.79 ± 0.3.
The like results for GUAGAGCAAUAUUACGAUGU were, in that order, -1.04 ± 0.18 and -0.121 ± 0.19.
For GUGAAGCAAUAUUACGCAUG, the “self-splicing fitness (ln)” value (30 °C) is -1.5 ± 0.15 and the “self-splicing fitness (ln)” value (37 °C) was -1.23 ± 0.18.
The like results for AAUUAGCAAUAUUACGGAAU were, in that order, -2.33 ± 0.27 and -0.461 ± 0.18.
As to GCACAGCAAUAUUACGGAUA, the “self-splicing fitness (ln)” value (30 °C) was -2.49 ± 0.17 and the “self-splicing fitness (ln)” value (37 °C) is -1.38 ± 0.12.
On to UUGAAGCAAUAUUACGAACA, for which the “self-splicing fitness (ln)” value runs as follows: (30 °C) 0.602 ± 0.15; (37 °C) -0.488 ± 0.23.
The corresponding values for CGGCAGCAAUAUUACGCUGC are -3.47 ± 0.32 and -1.5 ± 0.19.
For AUACAGCAAUAUUACGGCGU, the “self-splicing fitness (ln)” value is -0.145 ± 0.065 (30 °C) and 0.665 ± 0.076 (37 °C).
The corresponding values for GUUGAGCAAUAUUACGAAUA are -1.6 ± 0.16 and -1.44 ± 0.18.
Regarding CCCCAGCAAUAUUACGGCAG, the “self-splicing fitness (ln)” value (30 °C) is -3.92 ± 0.16 and the “self-splicing fitness (ln)” value (37 °C) is -2.22 ± 0.15.
The like results for UAGAAGCAAUAUUACGGCUA were, in that order, -0.274 ± 0.12 and -0.13 ± 0.16.
